“And” between values parts separate entries of the source, which are not always exact repeats. Equal entries are not always repeated.
Experiments:
[1] = molecular target: T1, human CD4 expressed on cells (human, UniProt P01730 26-458); assay: cell-based or functional assay
[2] = molecular target: T1, human CD4 expressed on cells; assay: cell-based or functional assay; remark: listed apart in the source
[3] = molecular target: T1, human CD4 expressed on cells; assay: cell-based or functional assay; remark: listed apart in the source
[4] = molecular target: T1, human CD4 expressed on cells; assay: cell-based or functional assay; remark: listed apart in the source
[5] = molecular target: T1, human CD4 expressed on cells; assay: cell-based or functional assay; remark: listed apart in the source
[6] = molecular target: T1, human CD4 expressed on cells; assay: cell-based or functional assay; remark: listed apart in the source
[7] = molecular target: T1, human CD4 expressed on cells; assay: cell-based or functional assay; remark: listed apart in the source
[8] = molecular target: T1, human CD4 expressed on cells; assay: cell-based or functional assay; remark: listed apart in the source
[9] = molecular target: T1, human CD4 expressed on cells; assay: flow cytometry, THP-1 cells
[10] = molecular target: T1, human CD4 expressed on cells; assay: flow cytometry, Jurkat cells
[11] = molecular target: T1, human CD4 expressed on cells; assay: flow cytometry, MOLM-13 cells (CXCR4+/CD4+)
[12] = molecular target: T1, human CD4 expressed on cells; assay: flow cytometry, THP-1 cells, anti-flag detection
[13] = molecular target: T1, human CD4 expressed on cells; assay: flow cytometry, MOLM-13 cells, anti-flag detection
[14] = molecular target: T1, human CD4 expressed on cells; assay: flow cytometry, primary human T cells, anti-flag detection
cynomolgus CD4 = molecular target: T2, cynomolgus CD4 (cynomolgus, UniProt P79185 26-458); assay: flow cytometry on the cynomolgus CD4+ T cell line HSC-F, anti-Flag + goat anti-mouse-PE
T2 construct: whole, on cells; also called cyno CD4
T2 sequence (P79185 26-458): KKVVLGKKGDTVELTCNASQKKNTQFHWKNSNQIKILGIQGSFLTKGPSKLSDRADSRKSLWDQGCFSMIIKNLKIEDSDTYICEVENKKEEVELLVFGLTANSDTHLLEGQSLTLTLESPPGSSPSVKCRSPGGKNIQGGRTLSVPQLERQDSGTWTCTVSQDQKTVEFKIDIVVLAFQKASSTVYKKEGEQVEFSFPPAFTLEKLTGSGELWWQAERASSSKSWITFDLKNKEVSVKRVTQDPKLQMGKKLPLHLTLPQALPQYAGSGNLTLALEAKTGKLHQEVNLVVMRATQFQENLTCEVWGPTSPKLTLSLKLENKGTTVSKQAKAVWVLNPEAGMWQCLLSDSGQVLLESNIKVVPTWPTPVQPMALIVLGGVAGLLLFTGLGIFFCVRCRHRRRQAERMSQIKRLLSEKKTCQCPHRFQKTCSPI

human CXCR4 [15] = molecular target: T3, human CXCR4 (human, UniProt P61073 1-352); assay: ELISA on coated hCXCR4 lipoparticles versus null lipoparticles, anti-c-myc + anti-mouse-HRP
T3 construct: also called hCXCR4
T3 sequence (P61073 whole entry): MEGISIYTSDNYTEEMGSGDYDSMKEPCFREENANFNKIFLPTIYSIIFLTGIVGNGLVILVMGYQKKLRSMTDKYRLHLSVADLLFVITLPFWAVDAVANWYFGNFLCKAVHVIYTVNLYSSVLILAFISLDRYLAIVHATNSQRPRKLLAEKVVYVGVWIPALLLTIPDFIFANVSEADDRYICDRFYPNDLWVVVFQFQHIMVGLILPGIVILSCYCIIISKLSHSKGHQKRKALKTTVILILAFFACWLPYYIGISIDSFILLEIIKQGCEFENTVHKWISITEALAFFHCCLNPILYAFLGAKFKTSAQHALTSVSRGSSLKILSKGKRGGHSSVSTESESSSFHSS

[16] = molecular target: T1, human CD4 expressed on cells; assay: flow cytometry, Jurkat E6-1 cells (CXCR4+/CD4low); Jurkat E6-1 cells (CXCR4+/CD4low), average of 3 experiments
human CXCR4 [17] = molecular target: T3, human CXCR4; assay: cell-based or functional assay
human CXCR4 [18] = molecular target: T3, human CXCR4; assay: cell-based or functional assay; remark: listed apart in the source
human CXCR4 [19] = molecular target: T3, human CXCR4; assay: cell-based or functional assay; remark: listed apart in the source
human CXCR4 [20] = molecular target: T3, human CXCR4; assay: cell-based or functional assay; remark: listed apart in the source
human CXCR4 [21] = molecular target: T3, human CXCR4; assay: cell-based or functional assay; remark: listed apart in the source
human CXCR4 [22] = molecular target: T3, human CXCR4; assay: cell-based or functional assay; remark: listed apart in the source
human CXCR4 [23] = molecular target: T3, human CXCR4; assay: cell-based or functional assay; remark: listed apart in the source
human CXCR4 [24] = molecular target: T3, human CXCR4; assay: cell-based or functional assay; remark: listed apart in the source
human CXCR4 [25] = molecular target: T3, human CXCR4; assay: cell-based or functional assay; remark: listed apart in the source
human CXCR4 [26] = molecular target: T3, human CXCR4; assay: cell-based or functional assay; remark: listed apart in the source
human CXCR4 [27] = molecular target: T3, human CXCR4; assay: flow cytometry, THP-1 cells (double-positive)
human CXCR4 [28] = molecular target: T3, human CXCR4; assay: flow cytometry, MOLM-13 cells (CXCR4+/CD4+)
human CXCR4 [29] = molecular target: T3, human CXCR4; assay: flow cytometry, Jurkat E6-1 cells (CXCR4+/CD4low)
human CXCR4 [30] = molecular target: T3, human CXCR4; assay: [125I]-SDF-1 displacement, HEK293-CXCR4 membrane extracts
human CXCR4 [31] = molecular target: T3, human CXCR4; assay: SDF-1^AF647 displacement, SUPT-1 cells, flow cytometry, n = 3
human CXCR4 [32] = molecular target: T3, human CXCR4; assay: [125I]-SDF-1 displacement, HEK293-CXCR4 membrane extracts, n = 3
human CXCR4 [33] = molecular target: T3, human CXCR4; assay: competition with 12G5 (competitor, 1 nM), Jurkat cells, flow cytometry
human CXCR4 [34] = molecular target: T3, human CXCR4; assay: inhibition of 12G5 (competitor, 10 nM PE-labelled) binding, THP-1 cells
human CXCR4 [35] = molecular target: T3, human CXCR4; assay: inhibition of 12G5 (competitor, 10 nM PE-labelled) binding, Jurkat cells
human CXCR4 [36] = molecular target: T3, human CXCR4; assay: inhibition of 12G5 (competitor, 10 nM PE-labelled) binding, SUPT-1 cells

B1: Nanobody 03F11 (VHH)
VHH: EVQLVESGGGSVQPGGSLTLSCGTSGRTFNVMGWFRQAPGKEREFVAAVRWSSTGIYYTQYADSVKSRFTISRDNAKNTVYLEMNSLKPEDTAVYYCAADTYNSNPARWDGYDFRGQGTQVTVSS
notes: Monovalent anti-human CD4 Nanobody; also called CD4 3F11; anti-CD4 Nanobody 3F11; not shown: C-terminal myc-His6 tag (E. coli) or FLAG3-His6 tag (Pichia)
IC50, X4 HIV-1 NL4.3 replication in MT-4 cells [1]: 0.52 µg/mL | IC50, HIV-1 neutralization, MT-4 + NL4.3 [2]: 34.7 nM | IC50, MT-4 + NL4.3 (X4) [3]: 35.3 nM | IC50, PBMC + BaL (R5) [3]: 610 nM | IC50, PBMC + NL4.3 (X4) [3]: 580 nM | IC50, U87 + NL4.3 (X4) [3]: > 1330 nM | IC50, MT-4, HE (R5/X4) [4]: 10 nM | IC50, MT-4, HIV-2 ROD (R5/X4) [4]: 22.7 nM | IC50, MT-4, NL4.3 (X4) [4]: 34.7 nM | IC50, PBMC, BaL (R5) [4]: 610 nM | IC50, PBMC, DJ259 (R5) [4]: 31 nM | IC50, PBMC, HE (R5/X4) [4]: > 1700 nM | IC50, PBMC, NL4.3 (X4) [4]: 500 nM | IC50, PBMC, SM145 (R5) [4]: 27 nM | IC50, MT-4, NL4.3 2G12 res. [5]: 23.3 nM | IC50, MT-4, NL4.3 3F11 res. [5]: > 6700 nM | IC50, MT-4, NL4.3 281F12 res. [5]: > 6700 nM | IC50, MT-4, NL4.3 AMD-3100 res. [5]: 22.7 nM | IC50, MT-4, NL4.3 CXCL-12 res. [5]: 153 nM | IC50, MT-4, NL4.3 wt [5]: 34.7 nM | IC50, PBMC, NL4.3 3F11 res. [5]: > 6700 nM | IC50, PBMC, NL4.3 281F12 res. [5]: > 6700 nM | IC50, PBMC, NL4.3 WT [5]: 500 nM | IC50, TZM-bl, DJ259 (R5) [6]: 169 nM | IC50, TZM-bl, NL4.3 3F11 res [6]: > 6700 nM | IC50, TZM-bl, NL4.3 281F12 res [6]: > 6700 nM | IC50, TZM-bl, NL4.3 WT (X4) [6]: 131 nM | IC50, TZM-bl, SM145 (R5) [6]: 8.33 nM | IC50, syncytia formation, SupT1 + HUT-78/IIIb [7]: 4600 nM | IC50, syncytia formation, SupT1 + HUT-78/NL4.3 [7]: 2800 nM | IC50, HIV1 infectivity, X4 NL4.3 in MT-4 cells [8]: 60.7 nM | EC50 [9]: 0.5 nM | EC50 [10]: 1.1 nM | EC50 [11]: 0.7 nM | EC50 [12]: 1 nM | EC50 [13]: 0.6 nM | EC50 [14]: 0.76 nM | binding result (cynomolgus CD4): binds | binding result (human CXCR4 [15]): no binding (tested: 100 nM) | EC50 [16]: 1.4 nM

B2: Nanobody 281F12 (VHH)
VHH: EVQLVESGGGLVQAGDSLRLSCAASGRAFSRYAMGWFRQAPGKEREFVAAIGWGPSKTNYADSVKGRFTISRDNAKNTVYLQMNTLKPEDTAVYSCAAKFVNTDSTWSRSEMYTYWGQGTQVTVSS
notes: also called CXCR4 281F12; anti-CXCR4 Nanobody 281F12; not shown: C-terminal c-myc-His6 tag (E. coli) or FLAG3-His6 tag (Pichia)
IC50, dual-tropic R5/X4 HIV-1 HE in PBMCs (human CXCR4 [17]): 267 nM | average IC50, HIV-1 NL4.3 replication in MT-4 cells (human CXCR4 [17]): 0.34 µg/mL | IC50, HIV-1 CM237 (clade B) infectivity in PBMC (human CXCR4 [18]): 16 nM | IC50, HIV-1 NL4.3 (X4) infectivity in PBMC (human CXCR4 [18]): 14 nM | IC50, HIV-1 UG270 (clade D) infectivity in PBMC (human CXCR4 [18]): 12 nM | IC90, HIV-1 CM237 (clade B) infectivity in PBMC (human CXCR4 [18]): 49 nM | IC90, HIV-1 NL4.3 (X4) infectivity in PBMC (human CXCR4 [18]): 57 nM | IC90, HIV-1 UG270 (clade D) infectivity in PBMC (human CXCR4 [18]): 2.4 nM | IC50, inhibition of SDF-1a-mediated chemotaxis, Jurkat E6-1 cells (human CXCR4 [19]): 84.2 nM | IC50, inhibition of SDF-1a-mediated chemotaxis, MOLM-13 cells (human CXCR4 [19]): 86 nM | IC50, SDF-1 induced Ca2+ signaling, U87-CD4-CXCR4 cells (human CXCR4 [20]): 66.7 nM | IC50, MT-4 + NL4.3 (X4) (human CXCR4 [21]): 22.9 nM | IC50, PBMC + BaL (R5) (human CXCR4 [21]): > 1670 nM | IC50, PBMC + NL4.3 (X4) (human CXCR4 [21]): 27.7 nM | IC50, U87 + NL4.3 (X4) (human CXCR4 [21]): > 6670 nM | IC50, MT-4, HE (R5/X4) (human CXCR4 [22]): 10 nM | IC50, MT-4, HIV-2 ROD (R5/X4) (human CXCR4 [22]): 86.7 nM | IC50, MT-4, NL4.3 (X4) (human CXCR4 [22]): 22.7 nM | IC50, PBMC, BaL (R5) (human CXCR4 [22]): > 1700 nM | IC50, PBMC, DJ259 (R5) (human CXCR4 [22]): > 1700 nM | IC50, PBMC, HE (R5/X4) (human CXCR4 [22]): 350 nM | IC50, PBMC, NL4.3 (X4) (human CXCR4 [22]): 47 nM | IC50, MT-4, NL4.3 2G12 res. (human CXCR4 [23]): 17.3 nM | IC50, MT-4, NL4.3 3F11 res. (human CXCR4 [23]): 87.3 nM | IC50, MT-4, NL4.3 281F12 res. (human CXCR4 [23]): 2330 nM | IC50, MT-4, NL4.3 AMD-3100 res. (human CXCR4 [23]): > 1700 nM | IC50, MT-4, NL4.3 CXCL-12 res. (human CXCR4 [23]): 220 nM | IC50, MT-4, NL4.3 wt (human CXCR4 [23]): 22.7 nM | IC50, PBMC, NL4.3 3F11 res. (human CXCR4 [23]): 120 nM | IC50, PBMC, NL4.3 281F12 res. (human CXCR4 [23]): 310 nM | IC50, PBMC, NL4.3 WT (human CXCR4 [23]): 28 nM | IC50, TZM-bl, DJ259 (R5) (human CXCR4 [24]): > 6700 nM | IC50, TZM-bl, NL4.3 3F11 res (human CXCR4 [24]): 45.6 nM | IC50, TZM-bl, NL4.3 281F12 res (human CXCR4 [24]): 366 nM | IC50, TZM-bl, NL4.3 WT (X4) (human CXCR4 [24]): 23.5 nM | IC50, TZM-bl, SM145 (R5) (human CXCR4 [24]): > 6700 nM | IC50, syncytia formation, SupT1 + HUT-78/IIIb (human CXCR4 [25]): 1800 nM | IC50, syncytia formation, SupT1 + HUT-78/NL4.3 (human CXCR4 [25]): 3600 nM | IC50, HIV1 infectivity, X4 NL4.3 in MT-4 cells (human CXCR4 [26]): 59.4 nM | EC50 (human CXCR4 [27]): 3.1 nM | EC50 (human CXCR4 [28]): 5.2 nM | EC50 (human CXCR4 [29]): 7 nM | Ki (human CXCR4 [30]): 27 nM and 26 nM | IC50 (human CXCR4 [31]): 6.3 nM | pKi (human CXCR4 [32]): 7.57 | IC50 (human CXCR4 [33]): 13 nM | IC50 (human CXCR4 [34]): 49.3 nM | IC50 (human CXCR4 [35]): 13.7 nM | IC50 (human CXCR4 [36]): 51.3 nM
